Source: the supplement of paper PMC10567573

B1: HMOX1 (parent)
chain: YHIYVALEEEIERNKESPVFAPVY
B2: FEM1A (parent)
chain: NIVEYLIQEQPGQEQVAGGEAQPG

Variants of: B1
Assay: protein stability index of a GFP-peptide fusion (GPS, HEK-293T) (PSI 1-6); higher = more stable
Conditions: c terminus: a fixed tail appended
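Also: lentivirally expressed fusions sorted by FACS into six bins by GFP to DsRed ratio, PSI derived from sequencing read proportions per bin multiplied by bin number.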

Protein stability index: each site, then its substitutions
A6: M 2, R 1.7, I 2.02, L 2.1, T 1.82, H 3.14, V 3.22, K 2.42, F 3.88, S 1.74, C 1.64, P 1.99, W 2.2, D 1.81, E 1.88, Q 2.42, N 1.59, Y 2.62
H2: F 2.25, E 3.12, T 2.18, M 2.17, G 2.57, Y 1.89, L 2.17, V 2.59, S 2.46, P 2.62, K 2.61, A 2.34, W 1.38, D 3.19, I 1.51, N 2.7, C 1.73, R 2.72, Q 3.32
V5: N 3.59, D 4.82, K 3.47, R 3.13, Q 3.94, L 2.29, A 3.79, W 2.12, E 4.87, H 2.34, F 1.63, C 1.79, G 2.23, M 2.79, S 2.67, P 2.43, Y 1.47, T 3.39, I 1.94
Y1: M 2.35, R 2.73, G 2.26, N 3.93, T 3.71, V 1.67, P 2.46, K 2.57, D 4.59, Q 2.78, E 4.37, L 1.64, H 2.5, F 2.03, S 2.81, C 1.89, W 2.59, A 2.6, I 3.18
E10: Q 2.7, K 1.99, N 3.21, M 1.77, D 2.93, C 1.93, L 2.27, S 2.81, G 1.54, V 1.92, T 2.83, A 2.59, H 1.97, Y 2, R 1.56, I 1.74, F 1.78, W 1.26
Y4: M 1.36, P 1.78, T 1.59, G 1.64, Q 2.35, H 2.01, A 2.34, L 2.26, F 4.8, D 2.29, E 2.09, S 1.58, I 1.49, R 1.57, K 2.41, N 2.03
I3: T 1.92, K 1.91, F 2.91, D 2.27, M 1.77, G 2.77, P 2.06, V 2.18, Q 2.27, H 2.29, N 2.12, L 1.92, W 2.12, R 2.43, Y 1.91, A 1.42, C 3.57, S 2.26, E 2.33
K15: D 1.57, A 2.92, C 2.2, E 1.37
E8: V 2.3, N 1.94, I 2.51, S 3.74, M 4.06, P 2.49, T 2.19, G 3.48, Q 3.23, D 1.53, H 2.18, R 2.42, K 2.07, A 2.31, F 2.43, Y 1.05, L 2.49
R13: H 1.75, K 2.14, I 2.02, G 1.55, T 1.19, C 1.39, S 2.23, P 2.11, L 1.22, F 2.97, N 1.23, A 1.34, M 1.4, E 1.34, Q 1.54, D 1.52, W 2.25, V 2.02
L7: Y 2.02, S 1.56, I 1.76, A 2.34, N 1.88, R 1.67, T 1.88, C 2.75, D 2.03, G 2.48, K 2.2, F 1.97, M 1.62, P 1.59, H 1.49, W 2.2, Q 2.16, V 2.93, E 1.76
E9: G 2.06, Y 1.98, A 1.91, D 1.88, T 1.7, N 2.26, H 1.58, I 1.62, P 2.6, K 2.14, Q 1.75, S 1.87, F 2.43, L 2.57, R 2.02, M 1.72
E12: A 1.68, F 2.35, H 1.58, W 2.27, T 1.85, S 2.42, G 3.07, K 1.94, N 2.29, P 3.7, I 1.45, M 1.2, C 1.52, Q 1.95, D 1.43, V 1.93, R 1.62, L 1.83
I11: L 1.57, E 1.89, Q 2.01, W 2.18, V 1.84, Y 2.21, A 1.31, P 2.07, C 2.46, G 2.24, D 1.58, H 2.01, R 1.56, S 2.15, N 1.48, K 2.05, T 1.54, M 2.16, F 1.6
N14: Y 1.45, K 2.12, M 2.31, A 1.72, L 2.05, Q 2.62, R 2.32, T 2.81, F 2.15, S 2.54, H 2.14, D 2.06, G 1.98, E 1.98, I 1.26, C 1.32, V 1.49

Variants of: B2
Assay: as above
Conditions: c terminus: a fixed tail appended

Protein stability index of substitutions, site by site:
G24: R 3.98, Q 4.37, P 4.12, C 4.17, W 2.86, F 3.76, K 3.94, N 4.29, L 4.05, E 4.03, I 4.03, H 4.28, Y 3.51, T 4.17, M 3.86, D 4.62, A 3.67, S 3.86, V 3.29
P23: C 3.98, H 3.98, L 4.24, D 4.66, E 4.74, W 3.03, R 3.66, N 4.25, K 4.29, M 4.33, V 4.09, A 4.93, G 4.19, T 4.14, Q 3.7, Y 3.59, S 4.46, F 3.66, I 3.94
Q22: M 4.35, I 3.66, T 3.91, R 3.94, N 4.22, L 4.16, A 4.1, Y 2.78, F 3.24, S 4.53, K 4.08, G 4.33, E 4.82, D 4.56, H 3.94, V 4.35, W 2.51, P 4.02, C 4.58
A21: S 3.83, E 4.76, P 4.27, G 3.86, Q 4.05, T 4.67, D 4.53, C 4.09, N 4.7, L 3.95, W 3.03, V 4.15, K 4.28, I 3.91, M 4.16, H 3.77, F 4.41, Y 4.03, R 4.19
E20: Y 2.34, W 2.62
